These results are taken from article PMC12174348 (Nature Communications, 2025).

The target in the assay is human NMDAR (GluN1 and GluN2B subunits) on HEK293 cells (Homo sapiens, UniProt Q05586;Q13224). Put plainly: cell-based or functional assay.

B1: reference pathogenic anti-NMDAR autoantibody 502 Ab (antibody, V domains shown)
VH: QVQLQESGPGLVKPSQTLSLTCSVTGYSITSDYYWHWIRQPPGKGLEWIAYIRYDGRNDSNPSLKNRVTISRDTSKNQFSLKLSSVTAADTAVYYCAREDYASSSFDYWGQGTLVTVSS
VL: DIQMTQSPSSLSASVGDRVTITCRPSENIYSNLAWYQQKPGKAPKLLVYAATNLADGVPSRFSGSGSGTDYTLTISSLQPEDIATYYCQHFWDSPPTFGQGTKLEIK
Turning to B1, the “in vitro pathogenicity (NMDAR internalization) of 502 Ab, EC50; the sentence may also mean its binding” value stood at 0.021 µg/mL.
